Reference: publication PMC12509902, “PRMT1/PRMT5-Mediated Differential Arginine Methylation of CRIP1 Promotes the Recurrence of Small Cell Lung Cancer after Chemotherapy” (International Journal of Biological Sciences, 2025)

Target: T1, 3×Flag-PRMT5 (UniProt O14744 1-637)
T1 construct: Protein arginine methyltransferase 5 (PRMT5), from plasmid pCDH-CMV-3×Flag-PRMT5
Assay: pull-down; GST pull-down as described in ref. 23; GST-tagged protein expressed in BL21; Flag-tagged protein purified from HEK-293T by Flag affinity gel and 3× FLAG peptide elution; the paper calls the binding direct
Settings: both partners purified

T1 sequence (O14744 whole entry): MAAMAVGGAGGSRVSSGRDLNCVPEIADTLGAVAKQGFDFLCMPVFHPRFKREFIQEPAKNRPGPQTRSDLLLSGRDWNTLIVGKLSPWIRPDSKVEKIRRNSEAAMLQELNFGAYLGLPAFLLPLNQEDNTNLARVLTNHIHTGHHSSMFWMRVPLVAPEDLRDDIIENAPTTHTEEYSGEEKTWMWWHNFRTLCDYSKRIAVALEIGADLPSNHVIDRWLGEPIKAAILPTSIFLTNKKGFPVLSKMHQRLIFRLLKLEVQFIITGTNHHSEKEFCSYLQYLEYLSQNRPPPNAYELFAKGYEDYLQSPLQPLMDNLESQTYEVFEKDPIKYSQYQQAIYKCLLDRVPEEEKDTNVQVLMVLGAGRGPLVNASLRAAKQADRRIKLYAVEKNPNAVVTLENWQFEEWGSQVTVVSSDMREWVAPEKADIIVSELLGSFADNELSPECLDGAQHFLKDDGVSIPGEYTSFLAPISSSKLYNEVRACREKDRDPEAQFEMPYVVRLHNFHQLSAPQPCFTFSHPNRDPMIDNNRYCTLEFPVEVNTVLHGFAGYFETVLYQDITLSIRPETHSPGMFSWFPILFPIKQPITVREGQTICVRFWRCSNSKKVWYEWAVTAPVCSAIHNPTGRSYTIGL

binding result: binds
B1: GST-CRIP1, full-length (FL), wild type (natural protein, UniProt P50238 1-77, looked up)
chain: MPKCPKCNKEVYFAERVTSLGKDWHRPCLKCEKCGKTLTSGGHAEHEGKPYCNHPCYAAMFGPKGFGRGGAESHTFK
notes: Cysteine-rich intestinal protein 1 (CRIP1), full length, in pGEX-6P-1; also called GST-CRIP1 WT; source: E. coli BL21, induced with 1 mM IPTG
